What was measured:
[1] = biological target: T1, human c-Met ECD-Fc-Flis (human); assay: HGF-blocking ELISA: HGF signal on coated c-Met ECD-Fc-Flis; Ab 488.28 ng/mL
T1 construct: c-Met ECD fused to Fc with flag- and His-tag at the C-terminus; also called human c-Met extracellular domain (ECD)-Fc-Flis fusion; human c-Met-Flis-Fc ECD
Method: (§1) Wells of 96-well EIA/RIA high binding plates (Costar, #2592) are coated with 100 μL of human c-Met ECD-Fc-Flis (SEQ ID NO:72) (2 μg/mL) in Dulbecco's phosphate buffered saline (DPBS) overnight at room temperature; washed four times with wash buffer (Tris-buffered saline, pH 8.0, with 0.05% (v/v) polysorbate 20 (TWEEN®-20) (TBS-T) (BioFX Labs, # WSHW-1000-01) in a plate washer; blocked by adding 300 μL of blocking buffer (TBS-T plus 1% (w/v) bovine serum albumin (BSA) (Jackson Immuno, #001-000-162); and incubating for 60 min. at 37° C. Blocking buffer is then removed from the wells and 50 μL of antibodies in blocking buffer at final concentrations as indicated in Table 7 are added into each well, respectively. […] The plates with c-Met antibodies are incubated for 90 min. at 37° C. […] The wells are then washed four times with TBS-T in a plate washer. […] The plates are incubated for 90 min. at room temperature. The wells are again washed four times with TBS-T in a plate washer. 100 μL of a 1:200 dilution of streptavidin-horseradish peroxidase (HRP) (R&D Systems, DY998) in blocking buffer are added to each well. The plates are incubated for 30 min. at room temperature. The wells are washed four times with TBS-T in a plate washer. 100 μL/well of substrate solution (BioFx, #TMBW-1000-01) are then added, and the plates are incubated for 10 min. at room temperature. To stop the reaction, 100 μL/well of stop solution (BioFx, # LSTP-1000-01) are added. The samples are read at a wavelength of 450-570 nm on a microplate reader (Spectra, MAX 190) and no background is subtracted.

[2] = biological target: T1, human c-Met ECD-Fc-Flis; assay: HGF-blocking ELISA: HGF signal on coated c-Met ECD-Fc-Flis; Ab 1.91 ng/mL
Method: as §1

[3] = biological target: T1, human c-Met ECD-Fc-Flis; assay: HGF-blocking ELISA: HGF signal on coated c-Met ECD-Fc-Flis; Ab 122.07 ng/mL
Method: as §1

[4] = biological target: T1, human c-Met ECD-Fc-Flis; assay: HGF-blocking ELISA: HGF signal on coated c-Met ECD-Fc-Flis; Ab 7.63 ng/mL
Method: as §1

[5] = biological target: T2, human c-Met (human, UniProt P08581 25-1390); assay: cell-based or functional assay
T2 sequence (P08581 25-1390): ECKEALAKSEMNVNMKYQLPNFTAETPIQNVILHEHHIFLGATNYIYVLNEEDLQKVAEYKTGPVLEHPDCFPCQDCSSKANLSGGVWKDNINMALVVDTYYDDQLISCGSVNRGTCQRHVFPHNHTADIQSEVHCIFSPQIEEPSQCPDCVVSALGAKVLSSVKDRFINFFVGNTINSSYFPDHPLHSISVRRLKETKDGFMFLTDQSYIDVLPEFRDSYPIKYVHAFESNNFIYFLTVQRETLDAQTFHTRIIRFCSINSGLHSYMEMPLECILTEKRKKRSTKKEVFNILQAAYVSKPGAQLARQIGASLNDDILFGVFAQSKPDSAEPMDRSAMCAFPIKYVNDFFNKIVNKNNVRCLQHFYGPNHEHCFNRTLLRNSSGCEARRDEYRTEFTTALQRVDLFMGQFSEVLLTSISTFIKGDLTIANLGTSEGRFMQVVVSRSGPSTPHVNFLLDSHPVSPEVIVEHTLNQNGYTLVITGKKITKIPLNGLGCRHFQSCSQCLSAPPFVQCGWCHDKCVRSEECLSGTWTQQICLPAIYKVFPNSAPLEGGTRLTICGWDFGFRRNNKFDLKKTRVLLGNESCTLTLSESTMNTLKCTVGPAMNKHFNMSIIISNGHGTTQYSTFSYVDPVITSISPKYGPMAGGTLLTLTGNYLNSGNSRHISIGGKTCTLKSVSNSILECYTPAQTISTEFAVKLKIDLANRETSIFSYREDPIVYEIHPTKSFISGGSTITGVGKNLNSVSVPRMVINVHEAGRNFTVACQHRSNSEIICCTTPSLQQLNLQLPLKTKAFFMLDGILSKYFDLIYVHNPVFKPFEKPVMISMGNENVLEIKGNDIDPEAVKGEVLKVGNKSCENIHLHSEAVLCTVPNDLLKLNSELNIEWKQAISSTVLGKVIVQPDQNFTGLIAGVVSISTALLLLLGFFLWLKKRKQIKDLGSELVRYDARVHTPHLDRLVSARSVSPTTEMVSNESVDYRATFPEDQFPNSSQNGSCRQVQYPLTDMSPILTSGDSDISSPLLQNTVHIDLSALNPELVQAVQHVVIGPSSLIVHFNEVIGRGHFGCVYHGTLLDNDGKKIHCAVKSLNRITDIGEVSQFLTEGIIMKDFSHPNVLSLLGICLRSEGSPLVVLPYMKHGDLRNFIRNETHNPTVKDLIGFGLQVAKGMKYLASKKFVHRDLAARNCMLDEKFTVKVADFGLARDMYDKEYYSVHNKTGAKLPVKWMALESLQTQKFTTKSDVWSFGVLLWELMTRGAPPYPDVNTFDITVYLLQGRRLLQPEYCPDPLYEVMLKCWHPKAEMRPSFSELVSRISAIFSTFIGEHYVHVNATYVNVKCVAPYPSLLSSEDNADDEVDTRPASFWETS

[6] = biological target: T1, human c-Met ECD-Fc-Flis; assay: HGF-blocking ELISA: HGF signal on coated c-Met ECD-Fc-Flis; Ab 1953.13 ng/mL
Method: as §1

[7] = biological target: T1, human c-Met ECD-Fc-Flis; assay: HGF-blocking ELISA: HGF signal on coated c-Met ECD-Fc-Flis; Ab 31250.00 ng/mL
Method: as §1

[8] = biological target: T2, human c-Met; assay: cell-based or functional assay; remark: listed apart in the source
[9] = biological target: T1, human c-Met ECD-Fc-Flis; assay: HGF-blocking ELISA: HGF signal on coated c-Met ECD-Fc-Flis; Ab 0.48 ng/mL
Method: as §1

[10] = biological target: T1, human c-Met ECD-Fc-Flis; assay: HGF-blocking ELISA: HGF signal on coated c-Met ECD-Fc-Flis; Ab 7812.50 ng/mL
Method: as §1

[11] = biological target: T1, human c-Met ECD-Fc-Flis; assay: HGF-blocking ELISA: HGF signal on coated c-Met ECD-Fc-Flis; Ab 0.00 ng/mL (HGF only)
Method: as §1

[12] = biological target: T1, human c-Met ECD-Fc-Flis; assay: HGF-blocking ELISA: HGF signal on coated c-Met ECD-Fc-Flis; Ab 30.52 ng/mL
Method: as §1

[13] = biological target: T1, human c-Met ECD-Fc-Flis; assay: HGF-blocking ELISA: HGF signal on coated c-Met ECD-Fc-Flis; Ab 125000.00 ng/mL
Method: as §1

[14] = biological target: T2, human c-Met; assay: cell-based or functional assay; remark: listed apart in the source
[15] = biological target: T3, human c-Met (human, UniProt P08581 25-1390); assay: cell-based or functional assay; remark: listed apart in the source
T3 sequence (P08581 25-1390): as above

[16] = biological target: T3, human c-Met; assay: cell-based or functional assay; remark: listed apart in the source
[17] = biological target: T3, human c-Met; assay: cell-based or functional assay; remark: listed apart in the source
[18] = biological target: T3, human c-Met; assay: cell-based or functional assay; remark: listed apart in the source

T1 sequence (chain, as listed by the source): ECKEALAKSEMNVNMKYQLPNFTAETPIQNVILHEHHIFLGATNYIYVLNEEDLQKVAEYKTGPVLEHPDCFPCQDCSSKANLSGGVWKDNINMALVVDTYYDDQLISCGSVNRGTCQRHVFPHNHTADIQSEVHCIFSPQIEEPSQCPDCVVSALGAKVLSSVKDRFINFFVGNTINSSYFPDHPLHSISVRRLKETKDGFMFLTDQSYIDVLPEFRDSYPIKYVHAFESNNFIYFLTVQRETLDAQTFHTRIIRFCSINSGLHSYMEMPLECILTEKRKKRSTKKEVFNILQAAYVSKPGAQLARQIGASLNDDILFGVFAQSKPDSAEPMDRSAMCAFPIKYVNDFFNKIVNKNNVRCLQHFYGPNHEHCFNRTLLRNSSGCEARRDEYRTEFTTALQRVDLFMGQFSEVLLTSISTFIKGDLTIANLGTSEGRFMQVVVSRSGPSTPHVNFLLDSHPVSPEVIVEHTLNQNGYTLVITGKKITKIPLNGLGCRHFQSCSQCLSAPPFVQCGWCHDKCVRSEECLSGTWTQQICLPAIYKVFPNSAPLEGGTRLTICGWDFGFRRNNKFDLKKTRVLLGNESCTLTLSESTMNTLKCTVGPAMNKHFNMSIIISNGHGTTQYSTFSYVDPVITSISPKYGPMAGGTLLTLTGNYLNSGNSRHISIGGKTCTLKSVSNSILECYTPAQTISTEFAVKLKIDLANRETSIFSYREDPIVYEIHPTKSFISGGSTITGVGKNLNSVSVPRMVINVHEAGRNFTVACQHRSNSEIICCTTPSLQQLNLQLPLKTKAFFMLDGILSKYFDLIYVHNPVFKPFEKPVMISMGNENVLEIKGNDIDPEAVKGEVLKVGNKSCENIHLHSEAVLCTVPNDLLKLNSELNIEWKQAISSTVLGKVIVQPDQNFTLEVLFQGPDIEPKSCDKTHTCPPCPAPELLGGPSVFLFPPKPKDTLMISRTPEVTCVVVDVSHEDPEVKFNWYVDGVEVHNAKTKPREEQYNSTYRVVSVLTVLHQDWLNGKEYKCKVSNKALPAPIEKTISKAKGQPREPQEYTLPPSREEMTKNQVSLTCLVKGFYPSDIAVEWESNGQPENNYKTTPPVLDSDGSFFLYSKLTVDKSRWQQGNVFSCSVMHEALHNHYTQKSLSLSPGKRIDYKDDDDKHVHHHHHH

B1: C8-co-16 (antibody, human IgG2, kappa, V domains shown)
VH: QVQLVQSGAEVKKPGASVKVSCKASGYTFTDYYMHWVRQAPGQGLEWMGRVNPYRGSTTYNQKFEGRVTMTTDTSTSTAYMELRSLRSDDTAVYYCARANILDYWGQGTTVTVSS
VL: DIQMTQSPSSLSASVGDRVTITCSVSSSVRSIYLHWYQQKPGKAPKLLIYSTSNLASGVPSRFSGSGSGTDFTLTISSLQPEDFATYYCQVYRGYPLTFGGGTKVEIKR
notes: Named IgG4 kappa; also called C8-co-16 IgG4
For B1, the “AVG A450 nm” value [1] was 0.7 A450 nm, the “AVG A450 nm” value [2] was 2.18 A450 nm and the “AVG A450 nm” value [3] was 1.3 A450 nm. The “AVG A450 nm” value [4] was 2.2 A450 nm, the “% inhibition of HGF stimulated phospho-Met (ELISA, HCT116 cells), Ab 0.0032 µg/mL” value [5] was -10.7% and the “% inhibition of HGF stimulated phospho-Met (ELISA, HCT116 cells), Ab 0.016 µg/mL” value [5] was -2.89%. For the same binder, the “% inhibition of HGF stimulated phospho-Met (ELISA, HCT116 cells), Ab 0.08 µg/mL” value [5] was 9.77%, the “% inhibition of HGF stimulated phospho-Met (ELISA, HCT116 cells), Ab 0.4 µg/mL” value [5] was 45.1% and the “% inhibition of HGF stimulated phospho-Met (ELISA, HCT116 cells), Ab 2 µg/mL” value [5] was 59%. For the same binder, the “% inhibition of HGF stimulated phospho-Met (ELISA, HCT116 cells), Ab 10 µg/mL” value [5] was 65.4%, the “AVG A450 nm” value [6] was 0.6 A450 nm and the “AVG A450 nm” value [7] was 0.56 A450 nm. The “AVG CPM, 3H-thymidine incorporation in MKN45 cells, Ab 0.0 ng/mL (no antibody)” value [8] was 51500 CPM, the “AVG CPM, 3H-thymidine incorporation in MKN45 cells, Ab 0.1 ng/mL” value [8] was 45700 CPM and the “AVG CPM, 3H-thymidine incorporation in MKN45 cells, Ab 0.4 ng/mL” value [8] was 47500 CPM. The “AVG CPM, 3H-thymidine incorporation in MKN45 cells, Ab 2.6 ng/mL” value [8] was 53500 CPM, the “AVG CPM, 3H-thymidine incorporation in MKN45 cells, Ab 15.4 ng/mL” value [8] was 22500 CPM and the “AVG CPM, 3H-thymidine incorporation in MKN45 cells, Ab 92.6 ng/mL” value [8] was 12400 CPM. For the same binder, the “AVG CPM, 3H-thymidine incorporation in MKN45 cells, Ab 555.6 ng/mL” value [8] was 13500 CPM, the “AVG CPM, 3H-thymidine incorporation in MKN45 cells, Ab 3333.3 ng/mL” value [8] was 13000 CPM and the “AVG CPM, 3H-thymidine incorporation in MKN45 cells, Ab 20000.0 ng/mL” value [8] was 11700 CPM. The “AVG A450 nm” value [9] was 2.05 A450 nm, the “AVG A450 nm” value [10] was 0.57 A450 nm and the “AVG A450 nm” value [11] was 2.61 A450 nm. The “AVG A450 nm” value [12] was 2.08 A450 nm, the “AVG A450 nm” value [13] was 0.38 A450 nm and the “Mean Fluorescence (c-Met left on the surface of MKN45 cells, FACS), Ab 5.00 ug/mL” value [14] was 56.2.

B2: D11-8B8 (antibody, human IgG2, kappa, V domains shown)
VH: QVQLVQSGAEVKKPGSSVKVSCKASGYTFTSRYIHWVRQAPGQGLEWMGWIYPVTGDTYYIEKFKGRVTITADKSTSTAYMELSSLRSEDTAVYYCARGYGAFFYWGQGTLVTVSS
VL: EIVLTQSPGTLSLSPGERATLSCSVSSSISSTNLHWYQQKPGQAPRLLIYGTSYLASGIPDRFSGSGSGTDFTLTISRLEPEDFAVYYCQQWSSYPYSFGQGTKLEIKR
With B2 the “Staurosporine-Induced Apoptosis in Caki-1 Cells, Average A450 nm, antibody dose 3 ng/mL” value [15] was 1.02 A450 nm, the “Staurosporine-Induced Apoptosis in Caki-1 Cells, Average A450 nm, antibody dose 30 ng/mL” value [15] was 0.91 A450 nm and the “Staurosporine-Induced Apoptosis in Caki-1 Cells, Average A450 nm, antibody dose 300 ng/mL” value [15] was 0.81 A450 nm. For the same binder, the “Staurosporine-Induced Apoptosis in Caki-1 Cells, Average A450 nm, antibody dose 3000 ng/mL” value [15] was 0.91 A450 nm, the “Staurosporine-Induced Apoptosis in Caki-1 Cells, Average A450 nm, antibody dose 30000 ng/mL” value [15] was 0.87 A450 nm and the “3H-Thymidine Incorporation in Caki-1 Cells in the Absence of HGF (AVG CPM), antibody dose 0.1 ng/mL” value [16] was 15300 CPM. For the same binder, the “3H-Thymidine Incorporation in Caki-1 Cells in the Absence of HGF (AVG CPM), antibody dose 0.4 ng/mL” value [16] was 14400 CPM, the “3H-Thymidine Incorporation in Caki-1 Cells in the Absence of HGF (AVG CPM), antibody dose 2.6 ng/mL” value [16] was 14100 CPM and the “3H-Thymidine Incorporation in Caki-1 Cells in the Absence of HGF (AVG CPM), antibody dose 15.4 ng/mL” value [16] was 13500 CPM. For the same binder, the “3H-Thymidine Incorporation in Caki-1 Cells in the Absence of HGF (AVG CPM), antibody dose 92.6 ng/mL” value [16] was 13700 CPM, the “3H-Thymidine Incorporation in Caki-1 Cells in the Absence of HGF (AVG CPM), antibody dose 555.6 ng/mL” value [16] was 14000 CPM and the “3H-Thymidine Incorporation in Caki-1 Cells in the Absence of HGF (AVG CPM), antibody dose 3333.3 ng/mL” value [16] was 15700 CPM. The “3H-Thymidine Incorporation in Caki-1 Cells in the Absence of HGF (AVG CPM), antibody dose 20000.0 ng/mL” value [16] was 15900 CPM, the “Percent of DU145 Cells in Colonies (scatter assay), antibody 20 ug/mL” value [17] was 25.6% and the “3H-Thymidine Incorporation in Primary Human Hepatocytes in the Absence of HGF (average), dose 0.0032 ug/mL” value [18] was 611. For the same binder, the “3H-Thymidine Incorporation in Primary Human Hepatocytes in the Absence of HGF (average), dose 0.016 ug/mL” value [18] was 715, the “3H-Thymidine Incorporation in Primary Human Hepatocytes in the Absence of HGF (average), dose 0.08 ug/mL” value [18] was 1120 and the “3H-Thymidine Incorporation in Primary Human Hepatocytes in the Absence of HGF (average), dose 0.4 ug/mL” value [18] was 1230. The “3H-Thymidine Incorporation in Primary Human Hepatocytes in the Absence of HGF (average), dose 2 ug/mL” value [18] was 1430 and the “3H-Thymidine Incorporation in Primary Human Hepatocytes in the Absence of HGF (average), dose 10 ug/mL” value [18] was 1700.

B3: C8-co-16 (antibody, human IgG2, kappa, V domains shown)
VH: B1 VH
VL: B1 VL
B3 was tested, and the “3H-Thymidine Incorporation in Caki-1 Cells in the Absence of HGF (AVG CPM), antibody dose 0.1 ng/mL” value [16] was 15600 CPM, the “3H-Thymidine Incorporation in Caki-1 Cells in the Absence of HGF (AVG CPM), antibody dose 0.4 ng/mL” value [16] was 14100 CPM and the “3H-Thymidine Incorporation in Caki-1 Cells in the Absence of HGF (AVG CPM), antibody dose 2.6 ng/mL” value [16] was 13700 CPM. The “3H-Thymidine Incorporation in Caki-1 Cells in the Absence of HGF (AVG CPM), antibody dose 15.4 ng/mL” value [16] was 12100 CPM, the “3H-Thymidine Incorporation in Caki-1 Cells in the Absence of HGF (AVG CPM), antibody dose 92.6 ng/mL” value [16] was 11600 CPM and the “3H-Thymidine Incorporation in Caki-1 Cells in the Absence of HGF (AVG CPM), antibody dose 555.6 ng/mL” value [16] was 11400 CPM. The “3H-Thymidine Incorporation in Caki-1 Cells in the Absence of HGF (AVG CPM), antibody dose 3333.3 ng/mL” value [16] was 13800 CPM, the “3H-Thymidine Incorporation in Caki-1 Cells in the Absence of HGF (AVG CPM), antibody dose 20000.0 ng/mL” value [16] was 13100 CPM and the “Percent of DU145 Cells in Colonies (scatter assay), antibody 20 ug/mL” value [17] was 23.7%. For the same binder, the “3H-Thymidine Incorporation in Primary Human Hepatocytes in the Absence of HGF (average), dose 0.0032 ug/mL” value [18] was 829, the “3H-Thymidine Incorporation in Primary Human Hepatocytes in the Absence of HGF (average), dose 0.016 ug/mL” value [18] was 716 and the “3H-Thymidine Incorporation in Primary Human Hepatocytes in the Absence of HGF (average), dose 0.08 ug/mL” value [18] was 767. The “3H-Thymidine Incorporation in Primary Human Hepatocytes in the Absence of HGF (average), dose 0.4 ug/mL” value [18] was 670, the “3H-Thymidine Incorporation in Primary Human Hepatocytes in the Absence of HGF (average), dose 2 ug/mL” value [18] was 822 and the “3H-Thymidine Incorporation in Primary Human Hepatocytes in the Absence of HGF (average), dose 10 ug/mL” value [18] was 952.

From patent publication US20100129369A1 (Eli Lilly, published 2010)
